# Test results as given in paper PMC3391105.
# Key:
# [1] = biological target: soluble mouse FcRn, GST-tagged (mFcRn heavy chain ectodomains with human β2-microglobulin) (mouse | human) (UniProt Q61559); test: SPR
# [2] = biological target: soluble human FcRn, GST-tagged (hFcRn heavy chain ectodomains with human β2-microglobulin) (human) (UniProt P55899); test: SPR
# Sequence of UniProt P55899 (P55899 24-297, chain 1 of 2): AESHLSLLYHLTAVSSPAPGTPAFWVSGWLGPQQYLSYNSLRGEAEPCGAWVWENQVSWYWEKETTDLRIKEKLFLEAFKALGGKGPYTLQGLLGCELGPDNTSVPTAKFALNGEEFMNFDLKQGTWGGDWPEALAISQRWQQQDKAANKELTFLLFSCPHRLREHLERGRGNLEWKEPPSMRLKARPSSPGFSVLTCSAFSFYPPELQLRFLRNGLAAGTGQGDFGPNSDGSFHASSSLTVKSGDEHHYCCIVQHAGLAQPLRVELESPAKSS
# Sequence of UniProt P55899 (P61769 21-119, chain 2 of 2, further chain): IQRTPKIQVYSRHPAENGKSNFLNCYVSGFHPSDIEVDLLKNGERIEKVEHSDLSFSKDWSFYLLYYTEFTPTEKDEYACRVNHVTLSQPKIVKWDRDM
# Sequence of UniProt Q61559 (Q61559 22-297, chain 1 of 2): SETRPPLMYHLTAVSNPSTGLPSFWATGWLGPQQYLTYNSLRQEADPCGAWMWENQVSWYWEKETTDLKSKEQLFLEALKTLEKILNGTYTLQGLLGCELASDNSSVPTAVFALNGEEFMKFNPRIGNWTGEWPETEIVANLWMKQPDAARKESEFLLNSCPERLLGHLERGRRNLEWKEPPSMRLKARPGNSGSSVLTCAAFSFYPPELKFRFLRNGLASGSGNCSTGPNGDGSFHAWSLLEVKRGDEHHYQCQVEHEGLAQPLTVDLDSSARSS
# Sequence of UniProt Q61559 (P61769 21-119, chain 2 of 2, further chain): as the sequence (P61769 21-119, chain 2 of 2, further chain) above
Substance,KD2 (heterogeneous ligand model) [1] [nM],KD1 (heterogeneous ligand model) [1] [nM],KD1 (heterogeneous ligand model) [2] [nM],KD2 (heterogeneous ligand model) [2] [nM]
anti-CEA cT84.66 scFv-Fc WT (nonmutated) (Fc fusion),43.8,–,–,–
anti-CEA cT84.66 scFv-Fc H435Q (Fc fusion),400,80.9,–,–
anti-CEA cT84.66 scFv-Fc H435R (Fc fusion),122,1.8,9.4,197
